According to paper PMC3632419:

Experiments:
Experiment in all cases: coupled-enzyme assay of AMP release
Assay type in all cases: biochemical, Streptomyces clavuligerus
Conditions in all cases: ATP as co-substrate
[1] = substrate: N=C(N)NCCC[C@H](NCCC(=O)O)C(=O)O
[2] = substrate: C[C@@H](CN[C@@H](CCCNC(=N)N)C(=O)O)C(=O)O
[3] = substrate: C[C@H](CN[C@@H](CCCNC(=N)N)C(=O)O)C(=O)O

Protein	Km [1]	kcat [1]	Km [2]	kcat [2]	Km [3]	kcat [3]
β-lactam synthetase (βLS) (Streptomyces clavuligerus) (protein) MGAPVLPAAFGFLASARTGGGRAPGPVFATRGSHTDIDTPQGERSLAATLVHAPSVAPDRAVARSLTGAPTTAVLAGEIYNRDELLSVLPAGPAPEGDAELVLRLLERYDLHAFRLVNGRFATVVRTGDRVLLATDHAGSVPLYTCVAPGEVRASTEAKALAAHRDPKGFPLADARRVAGLTGVYQVPAGAVMDIDLGSGTAVTHRTWTPGLSRRILPEGEAVAAVRAALEKAVAQRVTPGDTPLVVLSGGIDSSGVAACAHRAAGELDTVSMGTDTSNEFREARAVVDHLRTRHREITIPTTELLAQLPYAVWASESVDPDIIEYLLPLTALYRALDGPERRILTGYGADIPLGGMHREDRLPALDTVLAHDMATFDGLNEMSPVLSTLAGHWTTHPYWDREVLDLLVSLEAGLKRRHGRDKWVLRAAMADALPAETVNRPKLGVHEGSGTTSSFSRLLLDHGVAEDRVHEAKRQVVRELFDLTVGGGRHPSEVDTDDVVRSVADRTARGAA	37 ± 1 µM	0.87 ± 0.01 s⁻¹	60 ± 10 µM	0.023 ± 0.001 s⁻¹	40 ± 10 µM	0.032 ± 0.002 s⁻¹
β-lactam synthetase (βLS) (Streptomyces clavuligerus; V446G) (protein) MGAPVLPAAFGFLASARTGGGRAPGPVFATRGSHTDIDTPQGERSLAATLVHAPSVAPDRAVARSLTGAPTTAVLAGEIYNRDELLSVLPAGPAPEGDAELVLRLLERYDLHAFRLVNGRFATVVRTGDRVLLATDHAGSVPLYTCVAPGEVRASTEAKALAAHRDPKGFPLADARRVAGLTGVYQVPAGAVMDIDLGSGTAVTHRTWTPGLSRRILPEGEAVAAVRAALEKAVAQRVTPGDTPLVVLSGGIDSSGVAACAHRAAGELDTVSMGTDTSNEFREARAVVDHLRTRHREITIPTTELLAQLPYAVWASESVDPDIIEYLLPLTALYRALDGPERRILTGYGADIPLGGMHREDRLPALDTVLAHDMATFDGLNEMSPVLSTLAGHWTTHPYWDREVLDLLVSLEAGLKRRHGRDKWVLRAAMADALPAETVNRPKLGGHEGSGTTSSFSRLLLDHGVAEDRVHEAKRQVVRELFDLTVGGGRHPSEVDTDDVVRSVADRTARGAA	610 ± 60 µM	0.13 ± 0.01 s⁻¹	1200 ± 100 µM	0.13 ± 0.01 s⁻¹	1900 ± 700 µM	0.07 ± 0.002 s⁻¹
β-lactam synthetase (βLS) (Streptomyces clavuligerus; H447A) (protein) MGAPVLPAAFGFLASARTGGGRAPGPVFATRGSHTDIDTPQGERSLAATLVHAPSVAPDRAVARSLTGAPTTAVLAGEIYNRDELLSVLPAGPAPEGDAELVLRLLERYDLHAFRLVNGRFATVVRTGDRVLLATDHAGSVPLYTCVAPGEVRASTEAKALAAHRDPKGFPLADARRVAGLTGVYQVPAGAVMDIDLGSGTAVTHRTWTPGLSRRILPEGEAVAAVRAALEKAVAQRVTPGDTPLVVLSGGIDSSGVAACAHRAAGELDTVSMGTDTSNEFREARAVVDHLRTRHREITIPTTELLAQLPYAVWASESVDPDIIEYLLPLTALYRALDGPERRILTGYGADIPLGGMHREDRLPALDTVLAHDMATFDGLNEMSPVLSTLAGHWTTHPYWDREVLDLLVSLEAGLKRRHGRDKWVLRAAMADALPAETVNRPKLGVAEGSGTTSSFSRLLLDHGVAEDRVHEAKRQVVRELFDLTVGGGRHPSEVDTDDVVRSVADRTARGAA	–	–	80 ± 60 µM	0.013 ± 0.001 s⁻¹	–	–
β-lactam synthetase (βLS) (Streptomyces clavuligerus; V446A) (protein) MGAPVLPAAFGFLASARTGGGRAPGPVFATRGSHTDIDTPQGERSLAATLVHAPSVAPDRAVARSLTGAPTTAVLAGEIYNRDELLSVLPAGPAPEGDAELVLRLLERYDLHAFRLVNGRFATVVRTGDRVLLATDHAGSVPLYTCVAPGEVRASTEAKALAAHRDPKGFPLADARRVAGLTGVYQVPAGAVMDIDLGSGTAVTHRTWTPGLSRRILPEGEAVAAVRAALEKAVAQRVTPGDTPLVVLSGGIDSSGVAACAHRAAGELDTVSMGTDTSNEFREARAVVDHLRTRHREITIPTTELLAQLPYAVWASESVDPDIIEYLLPLTALYRALDGPERRILTGYGADIPLGGMHREDRLPALDTVLAHDMATFDGLNEMSPVLSTLAGHWTTHPYWDREVLDLLVSLEAGLKRRHGRDKWVLRAAMADALPAETVNRPKLGAHEGSGTTSSFSRLLLDHGVAEDRVHEAKRQVVRELFDLTVGGGRHPSEVDTDDVVRSVADRTARGAA	360 ± 20 µM	0.28 ± 0.01 s⁻¹	460 ± 40 µM	0.34 ± 0.02 s⁻¹	330 ± 20 µM	0.014 ± 0.001 s⁻¹
